From patent US20040121955A1 come the findings set out here.

The target of data set [1] is VEGF receptors on bovine aortic endothelial cells. Description: cell-based or functional assay.

rPAI-123, P79335, sequence (P79335 whole entry, looked up): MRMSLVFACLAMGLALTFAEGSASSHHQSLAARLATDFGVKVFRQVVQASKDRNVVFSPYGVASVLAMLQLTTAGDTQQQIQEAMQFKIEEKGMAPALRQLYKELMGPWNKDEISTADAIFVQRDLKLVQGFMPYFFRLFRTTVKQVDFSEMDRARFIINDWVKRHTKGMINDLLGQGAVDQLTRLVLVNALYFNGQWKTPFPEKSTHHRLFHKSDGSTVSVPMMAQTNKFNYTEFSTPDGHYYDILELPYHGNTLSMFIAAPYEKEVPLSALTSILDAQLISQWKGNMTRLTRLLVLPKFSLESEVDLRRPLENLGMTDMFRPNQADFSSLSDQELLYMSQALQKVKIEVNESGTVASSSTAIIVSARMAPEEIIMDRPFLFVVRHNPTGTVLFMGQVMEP
rPAI-1Δ23, P79335, sequence (P79335 whole entry, looked up, stated change not applied): as the sequence (P79335 whole entry, looked up) above

In data set [1], 125I-VEGF (ligand) came in with an apoptosis (Annexin V) in rPAI-123-treated BAEC versus PAEC of 60%.

B1: plasminogen (protein)
chain: EPLDDYVNTQGASLFSVTKKQLGAGSIEECAAKCEEDEEFTCRAFQYHSKEQQCVIMAENRKSSIIIRMRDVVLFEKKVYLSECKTGNGKNYRGTMSKTKNGITCQKWSSTSPHRPRFSPATHPSEGLEENYCRNPDNDPQGPWCYTTDPEKRYDYCDILECEEECMHCSGENYDGKISKTMSGLECQAWDSQSPHAHGYIPSKFPNKNLKKNYCRNPDRELRPWCFTTDPNKRWELCDIPRCTTPPPSSGPTYQCLKGTGENYRGNVAVTVSGHTCQHWSAQTPHTHNRTPENFPCKNLDENYCRNPDGKRAPWCHTTNSQVRWEYCKIPSCDSSPVSTEQLAPTAPPELTPVVQDCYHGDGQSYRGTSSTTTTGKKCQSWSSMTPHRHQKTPENYPNAGLTMNYCRNPDADKGPWCFTTDPSVRWEYCNLKKCSGTEASVVAPPPVVLLPDVETPSEEDCMFGNGKGYRGKRATTVTGTPCQDWAAQEPHRHSIFTPETNPRAGLEKNYCRNPDGDVGGPWCYTTNPRKLYDYCDVPQCAAPSFDCGKPQVEPKKCPGRVVGGCVAHPHSWPWQVSLRTRFGMHFCGGTLISPEWVLTAAHCLEKSPRPSSYKVILGAHQEVNLEPHVQEIEVSRLFLEPTRKDIALLKLSSPAVITDKVIPACLPSPNYVVADRTECFITGWGETQGTFGAGLLKEAQLPVIENKVCNRYEFLNGRVQSTELCAGHLAGGTDSCQGDSGGPLVCFEKDKYILQGVTSWGLGCARPNKPGVYVRVSRFVTWIEGVMRNN
Regarding B1, the “plasminogen cleavage (immunoblot probed for mini-plasminogen)” value with rPAI-1Δ23, P79335 is “the rPAI-1?23 protein did not cleave plasminogen, even when increasing concentrations of the recombinant protein were added”; with rPAI-123, P79335, “a distinct plasminogen cleavage product near 50 kDa in all reactions containing the rPAI-123 protein (3, 15 and 30 nM)”.
